Literature values, collected in PMC8438204, “Unraveling the Thermodynamics of Ultra-tight Binding of Intrinsically Disordered Proteins” (Frontiers in Molecular Biosciences, 2021).

Key:
[1] = test system: E7-Im7 (colicin DNase - immunity protein); settings: ref Keeble et al., 2006
Description: Supplement DataSheet1.docx, table 1: Table S1. Thermodynamic parameters and structural properties of the complexes. All parameters are reported at T = 25°C. | column: Thermodynamic parameters

CcdB2 = settings: ref Drobnak et al., 2013
Description: Supplement DataSheet1.docx, table 1: Table S1. Thermodynamic parameters and structural properties of the complexes. All parameters are reported at T = 25°C. | column: Thermodynamic parameters || Nonetheless, a handful of examples of IDP binders with ultra-high affinity have been characterized to date. […] Complexes are ordered according to the degree of energy optimization as estimated by the ΔH bind/ASAint values. For the HigA2_3-23-HigB2 complex the degree of energy optimization is similar to one observed for the pairs of globular high affinity binders (Supplementary Table S1, Figure 3A). […] The high affinit ...

barnase-barstar = settings: ref Frisch et al., 1997
Description: Supplement DataSheet1.docx, table 1: Table S1. Thermodynamic parameters and structural properties of the complexes. All parameters are reported at T = 25°C. | column: Thermodynamic parameters || Next, we examine how the binding energetics of HigA2_3-23-HigB2 compares to other ultra-high affinity complexes formed by globular proteins. These include well-known examples such as the barnase-barstar and the complexes between various immunity proteins and colicin-DNases ([Hartley, 1989]; [Keeble et al., 2006]). The overall Gibbs free energies of globular high affinity complexes (ΔG assoc about −19 kcal/mol) are approximately 3 kcal/mol more negative compared to HigA2_3–23-HigB2. Since no significant conformational changes occur upon formation of globular high affinity complexes in any of th ... || Nonetheless, a handful of examples of IDP binders with ultra-high affinity have been characterized to date.

B1: E7-Im7 (protein, UniProt Q47112 1-576; Q03708 1-87, looked up)
Colicin-E7: MSGGDGRGHNSGAHNTGGNINGGPTGLGGNGGASDGSGWSSENNPWGGGSGSGVHWGGGSGHGNGGGNSNSGGGSNSSVAAPMAFGFPALAAPGAGTLGISVSGEALSAAIADIFAALKGPFKFSAWGIALYGILPSEIAKDDPNMMSKIVTSLPAETVTNVQVSTLPLDQATVSVTKRVTDVVKDTRQHIAVVAGVPMSVPVVNAKPTRTPGVFHASFPGVPSLTVSTVKGLPVSTTLPRGITEDKGRTAVPAGFTFGGGSHEAVIRFPKESGQKPVYVSVTDVLTPAQVKQRQDEEKRLQQEWNDAHPVEVAERNYEQARAELNQANKDVARNQERQAKAVQVYNSRKSELDAANKTLADAKAEIKQFERFAREPMAAGHRMWQMAGLKAQRAQTDVNNKKAAFDAAAKEKSDADVALSSALERRKQKENKEKDAKAKLDKESKRNKPGKATGKGKPVNNKWLNNAGKDLGSPVPDRIANKLRDKEFKSFDDFRKKFWEEVSKDPELSKQFSRNNNDRMKVGKAPKTRTQDVSGKRTSFELHHEKPISQNGGVYDMDNISVVTPKRHIDIHRGK
Colicin-E7 immunity protein: MELKNSISDYTEAEFVQLLKEIEKENVAATDDVLDVLLEHFVKITEHPDGTDLIYYPSDNRDDSPEGIVKEIKEWRAANGKPGFKQG
[1]; 25°C
  -TΔS: 10.5 kcal/mol
  ΔG: -19.8 kcal/mol
  ΔH: -30.3 ± 0.8 kcal/mol
[1]
  ΔCp: -0.69 kcal mol^-1 K^-1

B2: CcdA (protein, UniProt P62552 1-72, looked up)
Antitoxin CcdA: MKQRITVTVDSDSYQLLKAYDVNISGLVSTTMQNEARRLRAERWKAENQEGMAEVARFIEMNGSFADENRDW
CcdB2; 25°C
  ΔG (association): -15.6 kcal/mol
CcdB2
  Kd: 4 pM

B3: barnase-barstar (protein, UniProt P00648 48-157; P11540 2-90, looked up)
Ribonuclease: AQVINTFDGVADYLQTYHKLPDNYITKSEAQALGWVASKGNLADVAPGKSIGGDIFSNREGKLPGKSGRTWREADINYTSGFRNSDRILYSSDWLIYKTTDHYQTFTKIR
Barstar: KKAVINGEQIRSISDLHQTLKKELALPEYYGENLDALWDCLTGWVEYPLVLEWRQFEQSKQLTENGAESVLQVFREAKAEGCDITIILS
barnase-barstar; 25°C
  -TΔS: -0.1 kcal/mol
  ΔG: -19 kcal/mol
barnase-barstar
  ΔCp: -0.36 ± 0.02 kcal mol^-1 K^-1
